This passage reports avidity results from patent US6783936.

The test deals with one CLL cell line. Briefly: avidity constant derived from LD50 of complement dependent cytotoxicity on CLL cells.

As for Lym-1 antibody, the avidity was 1.1e+08.
